# Experimental data as given in US20140286957A1 (Teva, published 2014).
# Read-outs that look alike come from different tables or passages of the source.
# T1: Human CD1d on cells (human, UniProt P15813 20-335)
# T1 sequence (looked up): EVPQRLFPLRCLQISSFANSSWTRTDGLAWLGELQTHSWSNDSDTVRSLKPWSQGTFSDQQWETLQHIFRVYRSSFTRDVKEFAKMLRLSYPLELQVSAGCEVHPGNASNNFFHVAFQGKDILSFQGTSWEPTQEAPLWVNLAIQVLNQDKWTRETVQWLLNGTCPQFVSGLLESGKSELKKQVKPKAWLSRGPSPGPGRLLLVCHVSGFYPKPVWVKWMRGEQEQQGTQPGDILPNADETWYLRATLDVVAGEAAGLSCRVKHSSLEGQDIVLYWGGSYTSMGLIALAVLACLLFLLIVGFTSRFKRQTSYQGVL
# T2: mCD1dhu (mouse with human segments)
# T2 chain: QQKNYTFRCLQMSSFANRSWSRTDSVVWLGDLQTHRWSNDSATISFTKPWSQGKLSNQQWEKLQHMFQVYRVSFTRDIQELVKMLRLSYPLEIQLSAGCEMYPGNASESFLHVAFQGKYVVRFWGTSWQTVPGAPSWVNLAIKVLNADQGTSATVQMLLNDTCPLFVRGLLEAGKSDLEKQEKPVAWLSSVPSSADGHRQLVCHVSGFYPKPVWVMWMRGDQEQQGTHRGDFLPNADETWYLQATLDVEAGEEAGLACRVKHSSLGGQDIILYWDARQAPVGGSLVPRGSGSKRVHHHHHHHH
# T3: Mouse CD1d (mouse, UniProt P11609 22-305)
# T3 construct: Murine CD1d extracellular domain construct, HEK-293E; also called mCD1d; murine CD1d
# T3 sequence: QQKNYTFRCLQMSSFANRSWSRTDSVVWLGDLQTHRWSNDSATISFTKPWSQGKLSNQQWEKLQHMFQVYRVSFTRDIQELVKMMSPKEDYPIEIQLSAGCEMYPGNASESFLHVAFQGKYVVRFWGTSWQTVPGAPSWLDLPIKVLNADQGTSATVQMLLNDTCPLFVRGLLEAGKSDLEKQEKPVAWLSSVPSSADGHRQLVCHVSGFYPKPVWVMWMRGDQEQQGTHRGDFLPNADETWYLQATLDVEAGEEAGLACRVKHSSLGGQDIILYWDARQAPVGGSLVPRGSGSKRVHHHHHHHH
# Experiments:
# Human CD1d on cells [1] = biological target: T1, Human CD1d on cells; test: cell-based or functional assay
# mCD1dhu = biological target: T2, mCD1dhu; test: direct ELISA, plate coated with 1 µg/mL CD1d construct, HRP anti-human IgG (H+L) detection
# Mouse CD1d = biological target: T3, Mouse CD1d; test: as above
# Human CD1d/β2M [2] = biological target: T4, Human CD1d/β2M (human, UniProt P15813 20-301; P61769 21-119); test: as above
# T4 construct: also called hCD1d; recombinant human CD1d
# Human CD1d/β2M [3] = biological target: T4, Human CD1d/β2M; test: SPR
# Human CD1d on cells [4] = biological target: T1, Human CD1d on cells; test: cell-based or functional assay; remark: listed apart in the source
# Human CD1d on cells [5] = biological target: T1, Human CD1d on cells; test: cell-based or functional assay; remark: listed apart in the source
# Human CD1d on cells [6] = biological target: T1, Human CD1d on cells; test: cell-based or functional assay; remark: listed apart in the source
# Human CD1d on cells [7] = biological target: T1, Human CD1d on cells; test: cell-based or functional assay; remark: listed apart in the source
# Human CD1d on cells [8] = biological target: T1, Human CD1d on cells; test: cell-based or functional assay; remark: listed apart in the source
# Human CD1d on cells [9] = biological target: T1, Human CD1d on cells; test: cell-based or functional assay; remark: listed apart in the source
binder,measurement,setting,value
"401.11.158 (antibody, V domains shown, IgG4 (S228P); biotinylated or Pacific Blue labelled in some assays) VH: QVQLVGSGGGLVKPGRSLRLSCAASGFTFDDYAMHWVRQAPGKGLEWVATIIWNSAIIGYADSVKGRFIVSRDNAKNSLYLQMNSLRAEDTALYYCAKDMCSSGGCPDGYFDSWGQGTLVTVSS VL: DIQMTQSPSSVSASVGDRVTITCRASQHISSWLAWYQQKPGKAPKLLIYAASSLQSGVPSRFSGSGSGTDFTLTISSLQPEDFATYYCQQANRFPLTFGGGTKLEIKR",NKT IFN-γ EC50 (moDC),Human CD1d on cells [1],8.16 ng/mL
same,NKT IL-4 EC50 (moDC),Human CD1d on cells [1],2.19 ng/mL
same,NKT IL-5 EC50 (moDC),Human CD1d on cells [1],6.13 ng/mL
same,NKT IL-13 EC50 (moDC),Human CD1d on cells [1],9.82 ng/mL
same,NKT TNF EC50 (moDC),Human CD1d on cells [1],4.3 ng/mL
same,EC50 (read off the curve),mCD1dhu,~100 ng/mL
same,binding result,Mouse CD1d,no binding
same,EC50 (read off the curve),Human CD1d/β2M [2],~8 ng/mL
same,Kd,Human CD1d/β2M [3],189 pM
same,NKT IFN-γ EC50 (THP-1),Human CD1d on cells [4],2.6 ng/mL
same,NKT IFN-γ EC50 (moDC),Human CD1d on cells [4],3 ng/mL
same,NKT IL-4 EC50 (THP-1),Human CD1d on cells [4],2.2 ng/mL
same,NKT IL-4 EC50 (moDC),Human CD1d on cells [4],1.16 ng/mL
same,NKT IL-13 EC50 (THP-1),Human CD1d on cells [4],4.35 ng/mL
same,"fold improvement against 401.11 (IFN-γ, moDC)",Human CD1d on cells [5],~4.8 fold
same,fold potency against antibody 42 (C24:1 βGluCer),Human CD1d on cells [5],≤ 216 fold
same,fold potency against antibody 51.1 (C24:1 βGluCer),Human CD1d on cells [5],≤ 175 fold
same,"IFN-γ EC50 (C24:1 βGluCer, moDC)",Human CD1d on cells [6],0.64 ng/mL
same,"IL-4 EC50 (C24:1 βGluCer, moDC)",Human CD1d on cells [6],0.682 ng/mL
same,"IL-5 EC50 (C24:1 βGluCer, moDC)",Human CD1d on cells [6],0.868 ng/mL
same,"IL-13 EC50 (C24:1 βGluCer, moDC)",Human CD1d on cells [6],1.44 ng/mL
same,"TNF-α EC50 (C24:1 βGluCer, moDC)",Human CD1d on cells [6],0.842 ng/mL
same,NKT IFN-γ EC50 (moDC),Human CD1d on cells [7],2.8 ng/mL
same,NKT IL-4 EC50 (moDC),Human CD1d on cells [7],0.432 ng/mL
same,NKT IL-5 EC50 (moDC),Human CD1d on cells [7],0.704 ng/mL
same,NKT IL-13 EC50 (moDC),Human CD1d on cells [7],0.598 ng/mL
same,NKT IL-4 EC50 (moDC),Human CD1d on cells [8],0.58 ng/mL
same,NKT IL-13 EC50 (moDC),Human CD1d on cells [8],3.84 ng/mL
same,NKT IFN-γ EC50 (THP-1),Human CD1d on cells [9],6.4 ng/mL
same,NKT IL-4 EC50 (THP-1),Human CD1d on cells [9],2.66 ng/mL
same,NKT IL-5 EC50 (THP-1),Human CD1d on cells [9],4.5 ng/mL
same,NKT IL-13 EC50 (THP-1),Human CD1d on cells [9],7.78 ng/mL
same,NKT TNF EC50 (THP-1),Human CD1d on cells [9],4.14 ng/mL
